Source: patent publication US7531500B2, “Preventing airway mucus production by administration of EGF-R antagonists” (The Regents of the University of California, priority 1998, dated 2009)

B1: IL-13: recombinant murine IL-13 in rats; recombinant human IL-13 in chemotaxis (R&D systems) (protein, UniProt P20109 19-131, looked up)
Interleukin-13: APGPVPRSVSLPLTLKELIEELSNITQDQTPLCNGSMVWSVDLAAGGFCVALDSLTNISNCNAIYRTQRILHGLCNRKAPTTVSSLPDTKIEVAHFITKLLSYTKQLFRHGPF

Experiments:
[1] = tested on: rat nasal septal epithelium; assay: fMLP-induced degranulation and regranulation of goblet cells in rat nasal epithelium; format: in vivo
Description: Nasal Tissue Preparation. At various times after inhalation, rats were anesthetized with pentobarbital sodium (65 mg/kg, i.p.). The heart of the animal was exposed, a blunt-ended needle was inserted from the apex of the left ventricle into the ascending aorta, and the systemic circulation was perfused with 1% paraformaldehyde. An incision in the right atrium provided an outlet for the fixative. The eyes, lower jaws, skin, and musculature were removed, and the head was immersed in a large volume of the same fixative for 24 h. […]
Counting of Neutrophils in Nasal Epithelium. Neutrophils were counted in high power fields of the epithelial layer stained with 3,3′-diaminobenzidine at magnification ×400. The number of neutrophils within the nasal sepal epithelium (from the basement membrane to cell apices) was determined by counting the number of nuclear profiles per unit of basal lamina length.
Quantification of Goblet Cell Degranulation and Regranulation. To assess goblet cell degranulation and regranulation, we measured the volume density of Alcian blue/PAS-stained mucosubstances on the mucosal surface epithelium using a semiautomatic imaging system according to a previously published method. […] Images of the nasal epithelium were recorded in high power fields with a phase contrast lens at x400, using an IMAXX Video System (PDI, Redmond, Wash.). […]

NCI-H292 cells = assay: Immunoassay of MUC5AC protein in NCI-H292 cells (Example 2); format: cell-based, human; details: 1 h incubation, protein at 24 h; IL-8 10^-8 M, fMLP 10^-8 M, TNFα 20 ng/ml
pathogen-free rats = assay: IL-13-induced goblet cell metaplasia in rat airways; format: in vivo
Description: Animals were anesthetized with pentobarbital [Nembutal sodium, 50 mg/kg, intraperitoneally (ip), Abbott Laboratories, North Chicago, Ill.] and allowed to breathe spontaneously. Vehicle (phosphate buffer solution, PBS) or IL-13 was instilled intratracheally via a 20-gauge Angiocath catheter (Beckton Dickinson, Sandy, Utah) through the mouth, while the laryngeal area was visualized using a high-intensity illuminator (FiberLite; Dolan Jenner Industries, Inc., Lawrence, Mass.). The […] tissues were examined 48 hours after instillation of IL-13. Various concentrations of IL-13 (recombinant murine IL-13; 5, 50, 100, and 500 ng/rat, R&D systems, Minneapolis, Minn.) were instilled into the trachea in […]. Sterile PBS (200 μl) was instilled into the trachea as controls. For examination of the relationship between IL-13-induced GC metaplasia and activation of EGFR, animals were pretreated 1 d before instillation of IL-13 and daily thereafter with a selective EGFR tyrosine kinase inhibitor (BIBX 1522; 1-30 mg/kg/day, ip; Boehringer Ingelheim, Ingelheim, Germany). Animals were euthanized 48 hours after instillation of IL-13. In preliminary studies, we noted that IL-13 causes leukocyte recruitment into the airways. We hypothesized that leukocyte recruitment results from IL-13-induced chemoattractant release from epithelium, and that this recruitment is involved in the IL-13-induced EGFR cascade leading to GC metaplasia. Groups of animals were euthanized 4, 8, 16, 24, and 48 hours after instillation of IL-13 (500 ng), and leukocytes were counted in airway tissue. […] Sigma chemical Co., St Louis, Mo.] or with a blocking antibody to interleukin-8 (IL-BAb; rabbit anti-human IL-8 antibody; Biosource, Camarillo, Calif.). […] In another series of studies, we instilled IL-8 Ab (10 μg/rat) intratracheally, along with IL-13; we repeated the instillation of anti-human IL-8 blocking antibody at 12 hour intervals until the animals were euthanized. Animals were euthanized with a lethal dose of pentobarbital (Nembutal sodium, 200 mg/kg, ip, Abbott Laboratories, North Chicago, Ill.), and the systemic circulation was perfused with 1% paraformaldehyde in Diethylpyrocarbonate (DEPC, Sigma chemical Co., St Louis, Mo.)-treated PBS via the left ventricle. For frozen sections, […] tissues were removed, placed in 4% paraformaldehyde overnight, and then placed in 30% sucrose for cryoprotection. The tissues were embedded in optimal cutting temperature (OCT, […]., Inc., Torrance, Calif.) compound. For plastic or paraffin sections, tissues were placed in 4% paraformaldehyde overnight, dehydrated with ethanol, and embedded in JB-4 plus monomer solution A (Polysclences, Inc., Warrington, Pa.) or in paraffin. The embedded tissues were cut as cross sections 4 μm thick and placed on glass slides. In all studies, the carina was examined to obtain consistent sampling. We measured AB/PAS-positive areas and total epithelial area, and we expressed the results as the percentage of AB/PAS area to total epithelial area. The analysis was performed with the public domain NIH IMAGE program (developed at the U.S. National Institutes of Health and available by anonymous FTP from zippy.nimh.gov. or floppy disk from the National Technical Information Service, Springfield, Va., part number PB95-500195GEI). […] For immunohistochemical localization of […], we used mouse anti-human IL-8 antibody (1:20; Biosource, Camarillo, Calif.). The sections were then incubated with biotinylated horse anti-mouse IgG (Vector Laboratories, Burlingame, Calif.) at 1:200 dilution for 1 hour at room temperature. Bound antibody was visualized according to standard protocols for avidin-biotin-peroxidase complex method. The measurement of MUC5AC protein also utilized the same method used for quantitative measurement of GC metaplasia in the epithelium. Animals were euthanized 4, 8, 16, 24, and 48 hours after instillation of IL-13 (500 ng), and leukocytes were counted in airway tissue. […]

human neutrophils = assay: Chemotaxis of human neutrophils (microchemotaxis chamber); format: cell-based; details: 10^-10, 10^-9, 5×10^-9 M
Description: Human neutrophils were purified from peripheral blood obtained from healthy donors. Neutrophil isolation was performed by standard techniques of Ficoll-Hypaque gradient separation, dextran sedimentation, and hypotonic lysis of erythrocytes. Cells were routinely >95% viable by trypan blue dye exclusion. To prevent endotoxin contamination, all solutions were passed through a […]. Chemotactic activity was assessed in 48-well microchemotaxis chamber (Neuroprobe, Cabin John, Md.), utilizing the leading front technique. Migration was measured as net movement of neutrophils ([…]) through a nitrocellulose filter (pore size, 3 μm) after 25 min at 37° C. The effect of IL-13 (10^−10, 10^−9, and 5×10^−9 M; recombinant human IL-13, R&D systems, Minneapolis, Minn.) is expressed as the distance traveled, compared to the random migration of neutrophils incubated with RPMI 1640.

[2] = IL-13 5, 50, 100, 500 ng/rat intratracheal, 48 hours, dose-dependently

Row | Molecule | area of MUC5AC-positive immunostaining ([1]; 4 h after fMLP aerosol (10^-7 M)) | AB/PAS-stained area of nasal epithelium ([1]; 4 h after fMLP aerosol (10^-7 M) intranasally for 5 min) | MUC5AC synthesis, stimulus alone without neutrophils (NCI-H292 cells) | leukocyte recruitment into airway epithelium (pathogen-free rats; IL-13 500 ng) | start of leukocyte recruitment (pathogen-free rats; IL-13 500 ng) | time of maximal leukocyte recruitment (pathogen-free rats; IL-13 500 ng) [h] | AB/PAS staining in rat airway epithelium (pathogen-free rats; [2]) | MUC5AC staining in rat airway epithelium (pathogen-free rats; [2]) | EGFR expression in airway epithelium (pathogen-free rats; instillation of IL-13) | staining of airway epithelium with anti-human IL-8 antibody (IL-8-like chemoattractant) (pathogen-free rats; instillation of IL-13) | TNFα expression in rat airway tissue (pathogen-free rats; instillation of IL-13, mainly in infiltrating neutrophils) | neutrophil movement (human neutrophils)
1 | CSCC[C@H](NC=O)C(=O)N[C@@H](CC(C)C)C(=O)N[C@@H](Cc1ccccc1)C(=O)O [fMLP, N-formyl-methionyl-leucyl-phenylalanine] | markedly decreased | markedly decreased | no effect |  |  |  |  |  |  |  |  | 
2 | B1 |  |  |  | time-dependent leukocyte recruitment | approximately 8 hours | ≤ 24 | increased | increased | increased | positive staining | induced | decreased neutrophil movement dose-dependently
